Measurements: paper PMC9304679, “HDX-guided EPR spectroscopy to interrogate membrane protein dynamics” (STAR Protocols, 2022)

Biological target: the molecule itself
Assay: SEC

B1: M tuberculosis MscL ion channel, wild type (natural protein)
chain: MLKGFKEFLARGNIVDLAVAVVIGTAFTALVTKFTDSIITPLINRIGVNAQSDVGILRIGIGGGQTIDLNVLLSAAINFFLIAFAVYFLVVLPYNTLRKKGEVEQPGDTQVVLLTEIRDLLAQTNGDSPGRHGGRGTPSPTDGPRASTESQ
notes: also called TbMscL; WT TbMscL
  stoichiometry N: 5
